Source: article doi:10.1101/2023.02.19.529138 (bioRxiv, 2023)

What was measured:
Assay in all cases: single-molecule photobleaching step analysis
[1] = target: LeuT (Aquifex aeolicus)
[2] = target: T1, KcsA (Streptomyces lividans), P0A334; settings: remark: other sources report otherwise
T1 chain: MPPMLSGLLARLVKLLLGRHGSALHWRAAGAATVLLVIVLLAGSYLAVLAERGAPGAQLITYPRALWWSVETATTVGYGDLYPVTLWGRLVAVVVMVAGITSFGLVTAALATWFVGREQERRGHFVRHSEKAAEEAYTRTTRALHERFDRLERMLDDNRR

[3] = target: the molecule itself

## LeuT (natural protein)
[1]
  percent dimer: 75%
  percent monomer: 14%

B1: KcsA, P0A334 1-160 (natural protein)
chain: T1 chain
[2]
  stoichiometry N: 4

B2: SemiSWEET (natural protein)
chain: MALIERIGKALEPLMLVMGLISPLATMPQLYKLYVSHSEHALGLSLTTWLLYSFIALLWTIYGIYHKNPTIWVGNCLGFLMYVAMVVGIIAHTGGTY
[3]
  stoichiometry N: 2
